B1: 6×His-SPL9 (natural protein, Arabidopsis, UniProt Q700W2 1-375, looked up)
chain: MEMGSNSGPGHGPGQAESGGSSTESSSFSGGLMFGQKIYFEDGGGGSGSSSSGGRSNRRVRGGGSGQSGQIPRCQVEGCGMDLTNAKGYYSRHRVCGVHSKTPKVTVAGIEQRFCQQCSRFHQLPEFDLEKRSCRRRLAGHNERRRKPQPASLSVLASRYGRIAPSLYENGDAGMNGSFLGNQEIGWPSSRTLDTRVMRRPVSSPSWQINPMNVFSQGSVGGGGTSFSSPEIMDTKLESYKGIGDSNCALSLLSNPHQPHDNNNNNNNNNNNNNNTWRASSGFGPMTVTMAQPPPAPSQHQYLNPPWVFKDNDNDMSPVLNLGRYTEPDNCQISSGTAMGEFELSDHHHQSRRQYMEDENTRAYDSSSHHTNWSL
notes: SPL9 of Arabidopsis; the SPL9 ORF was cloned into pET-30a (+); Printed both as 6×His-SPL9 and SPL9-His; pET-30a(+) may add further vector residues (surmised); also called SPL9-His; SPL9-HIS; source: E. coli Rosetta (DE3), purified (Ni-NTA)
B2: GST-BIN2 (enzyme, Arabidopsis, UniProt Q39011 1-380, looked up)
chain: MADDKEMPAAVVDGHDQVTGHIISTTIGGKNGEPKQTISYMAERVVGTGSFGIVFQAKCLETGETVAIKKVLQDRRYKNRELQLMRVMDHPNVVCLKHCFFSTTSKDELFLNLVMEYVPESLYRVLKHYSSANQRMPLVYVKLYMYQIFRGLAYIHNVAGVCHRDLKPQNLLVDPLTHQVKICDFGSAKQLVKGEANISYICSRFYRAPELIFGATEYTTSIDIWSAGCVLAELLLGQPLFPGENAVDQLVEIIKVLGTPTREEIRCMNPHYTDFRFPQIKAHPWHKIFHKRMPPEAIDFASRLLQYSPSLRCTALEACAHPFFDELREPNARLPNGRPFPPLFNFKQEVAGSSPELVNKLIPDHIKRQLGLSFLNQSGT
notes: BIN2, GSK3-like kinase of Arabidopsis; the BIN2 ORF was cloned into pPGH (derived from pGEX4T-2); Printed both as GST-BIN2 and BIN2-GST; a vector derived from pGEX4T-2 would put GST at the N-terminus (surmised); also called BIN2-GST; pPGH-BIN2; source: E. coli Rosetta (DE3), purified (GST resin)

Key:
GST-BIN2 = biological target: B2; test: pull-down; purified His-tagged protein incubated with resin bound with GST or GST-BIN2 at 4 °C for 4 h; washed five times with PBS-EW; blots with anti-His and anti-GST; conditions: both partners purified
6×His-TOE1 = biological target: T1, 6×His-TOE1 (Arabidopsis, UniProt Q9SK03 1-449); test: as above; conditions: both partners purified
T1 construct: TOE1 (AP2-like protein) of Arabidopsis; the TOE1 ORF was cloned into pET-30a (+); Printed both as 6×His-TOE1 and TOE1-His; pET-30a(+) may add further vector residues (surmised); also called TOE1-His; TOE1-HIS; source: E. coli Rosetta (DE3), purified (Ni-NTA)
T1 sequence (Q9SK03 whole entry): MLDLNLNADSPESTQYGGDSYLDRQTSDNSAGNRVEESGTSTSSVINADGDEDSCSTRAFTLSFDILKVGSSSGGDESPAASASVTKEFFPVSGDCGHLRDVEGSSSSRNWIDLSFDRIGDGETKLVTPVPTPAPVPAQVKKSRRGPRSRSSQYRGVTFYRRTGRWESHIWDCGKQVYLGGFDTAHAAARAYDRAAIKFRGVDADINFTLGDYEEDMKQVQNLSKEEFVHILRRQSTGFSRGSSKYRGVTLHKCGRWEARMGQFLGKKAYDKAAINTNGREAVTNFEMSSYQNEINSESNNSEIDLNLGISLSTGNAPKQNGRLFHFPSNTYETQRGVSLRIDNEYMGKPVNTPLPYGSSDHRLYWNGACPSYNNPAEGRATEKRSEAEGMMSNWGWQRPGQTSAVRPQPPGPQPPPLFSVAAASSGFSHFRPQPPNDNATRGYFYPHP

| binding result (GST-BIN2) | binding result (6×His-TOE1) | Binder |
| --- | --- | --- |
| binds | – | B1 |
| – | binds | B2 |

— article PMC10163027, “Coordinated regulation of vegetative phase change by brassinosteroids and the age pathway in Arabidopsis” (Nature Communications, 2023)
